Results from patent US20250340661A1, “ANTI CD40 ANTIBODY, ANTIGEN BINDING FRAGMENT AND MEDICAL USE THEREOF” (Jiangsu Hengrui Pharmaceuticals Co., Ltd., priority 2021, published 2025).
Like-named read-outs stand apart in the source and are kept apart here.

Biological target: CD40 (Homo sapiens, UniProt P25942)
Assay: DC cell activation assay system (monocyte-derived DCs, CD40L stimulation)
Format: cell-based
Set-up: endogenous in cells; host or cells: human PBMCs (CD19+ B cells read out)
Source text: CD40 is highly expressed on dendritic cells (DCs), and CD40L, upon binding to CD40, can induce DC activation, up-regulate the expression of multiple activation markers on the DC Cell surface, and promote the secretion of multiple inflammatory factors from DCs, further amplifying immune responses. CD40 antagonistic antibodies block the binding of CD40L to CD40, thereby eliminating the immune activation process of DC cells.
Monocytes were sorted and enriched from fresh primary human peripheral blood PBMCs using the EsaySep™ human CD14 sorting kit (Stemcell, 19359), and differentiated for 6 days with RPMI-1640 medium (10% FBS, 1% penicillin-streptomycin), 50 ng/mL IL-4 (PeproTech, 200-04) and 50 ng/mL GM-CSF (PeproTech, 300-03). On day 7, the differentiated DC cells were plated at 1E5/well into a 96-well cell culture plate. Serially diluted test antibodies were added to the wells, and the cells were co-incubated at 37° C. in 5% CO2 for 0.5 h. CD40L-his and an anti-His antibody were then added to each well at final concentrations. After 48 h of culture, the level of DC cell activation was measured by flow cytometry: after centrifugation, the supernatant was removed, and the cells were washed twice with FACS buffer (PBS+2% FBS) and stained at room temperature for 15 min with 100 μL of Fixable viability dye EF780 (Invitrogen, 65086514) diluted at 1:1000. The cells were washed twice and then blocked at room temperature for 10 min with 100 μL of human Fc blocker (BD, 564220) diluted at 1:200. After centrifugation, the cells were incubated at 4° C. for 0.5 h with flow cytometry antibodies (Alexa Fluor®700 anti-human CD11c (Biolegend, 337220), Brilliant Violet 421™ anti-human CD80 (Biolegend, 305221), and APC anti-human CD86 (Biolegend, 305412)) diluted at 1:200. After centrifugation, the supernatant was removed, the cells were washed twice with FACS buffer and then resuspended in 200 μL of PBS, and the fluorescence intensity on the cell surface was measured by flow cytometry (BD FACS Celesta).
In addition, the level of cytokine secretion in the supernatant was measured after 24 h (TNFα, Cisbio, 62[…]) and 48 h (IL-12/23 p40, Novus, VAL121) of culture. According to the results shown in Table 14 and FIGS. 3A to 3D, 9E6-L4H2 and 2F12-L4H2 have similar DC cell inhibition activity to the control antibody CFZ533.
With reference to the method in Example 11, the inhibitory activity of the anti-CD40 antibodies 2F12-L4H2-AAYTE and 9E6-L4H2-AAYTE, which carry the AAYTE mutation in the Fc, in the DC cell activation assay system was measured.

Chain of CD40 (P25942 21-277): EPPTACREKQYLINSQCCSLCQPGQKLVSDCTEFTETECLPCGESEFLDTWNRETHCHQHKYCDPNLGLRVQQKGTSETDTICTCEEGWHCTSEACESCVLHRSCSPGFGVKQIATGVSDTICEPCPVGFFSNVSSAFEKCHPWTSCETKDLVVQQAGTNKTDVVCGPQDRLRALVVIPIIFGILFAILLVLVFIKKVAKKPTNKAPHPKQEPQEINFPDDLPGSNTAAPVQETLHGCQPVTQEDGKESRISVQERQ

Q: Which results are given for “CFZ533: anti-CD40 antagonistic antibody (iscalimab), positive control; variable regions from U.S. Pat. No. 8,277,810B [reference compound]”?
A: IC50 (48 h culture, read-out: IC50 in DC cell activation assay system, CD80 MFI): 1.19 nM; IC50 (48 h culture, read-out: IC50 in DC cell activation assay system, CD86 MFI): 1.93 nM; IC50 (supernatant, 24 h, read-out: IC50 in DC cell activation assay system, TNFα): 0.35 nM; IC50 (supernatant, 48 h, read-out: IC50 in DC cell activation assay system, IL-12/23 p40): 0.68 nM
